# Measured values: the supplement of paper PMC7125110
# ± gives the standard error. Fewer inactive variants are shown than the library holds.
# B1: glmS ribozyme (parent)
# chain: AUAAAAGCGCCAGAACUACAGAAAUGUAGUUGACGAGGAGGAGGUUUAUCGAAUUUUCGGCGGAUGCCUCCAAA
# How the values were obtained:
# Details in all cases: with glucosamine-6-phosphate
# [1] = variants of: B1; assay: self-cleavage kobs at 40 uM GlcN6P; higher = faster cleavage; RNA array
# Procedure, shortened: (§1)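 Barcoded ribozyme variants, transcribed in situ by E. coli RNA polymerase on sequenced MiSeq chips, were followed via a hybridised Cy3 probe at 37 °C. Glucosamine-6-phosphate ranged from 40 μM to 10 mM in HEPES/KCl/Mg(OAc)2 buffer. kobs came from decay fits to per-tile medians, and kcat and KM from weighted Michaelis–Menten fits.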
# [2] = variants of: B1; assay: self-cleavage kobs at 640 uM GlcN6P; higher = faster cleavage; RNA array
# Procedure, shortened: as §1
# [3] = variants of: B1; assay: self-cleavage kobs at 2500 uM GlcN6P; higher = faster cleavage; RNA array
# Procedure, shortened: as §1
# [4] = variants of: B1; assay: self-cleavage kobs at 10000 uM GlcN6P; higher = faster cleavage; RNA array
# Procedure, shortened: as §1
# [5] = variants of: B1; assay: self-cleavage kobs at 160 uM GlcN6P; higher = faster cleavage; RNA array
# Procedure, shortened: as §1
Variant,self-cleavage kobs at 40 uM GlcN6P [1],self-cleavage kobs at 640 uM GlcN6P [2],self-cleavage kobs at 2500 uM GlcN6P [3],self-cleavage kobs at 10000 uM GlcN6P [4],self-cleavage kobs at 160 uM GlcN6P [5]
C11A A53U U57G C71A,0.000108 ± 2.7e-05 s⁻¹,0.000248 ± 7.4e-05 s⁻¹,0.000141 ± 6.7e-05 s⁻¹,9.23e-05 ± 2.2e-05 s⁻¹,
A12U G29A G41A C50A C67A,< 1e-05 s⁻¹,,,,
C11A G60U,< 1e-05 s⁻¹,< 1e-05 s⁻¹,< 1e-05 s⁻¹,< 1e-05 s⁻¹,< 1e-05 s⁻¹
A12G G63A A64U,< 1e-05 s⁻¹,,< 1e-05 s⁻¹,,< 1e-05 s⁻¹
C11U U65A,< 1e-05 s⁻¹,0.000121 ± 3.6e-05 s⁻¹,9.22e-05 ± 2e-05 s⁻¹,,
A12U A15G A39G,0.00105 ± 0.00021 s⁻¹,,,0.0688 ± 0.023 s⁻¹,
C10U C11G G43C G59A,< 1e-05 s⁻¹,,< 1e-05 s⁻¹,,< 1e-05 s⁻¹
A12U U31C G41A G60U,< 1e-05 s⁻¹,,,,
C10U G40U A48U,< 1e-05 s⁻¹,< 1e-05 s⁻¹,,< 1e-05 s⁻¹,
A12C U54A,0.000707 ± 7e-05 s⁻¹,0.0159 ± 0.0035 s⁻¹,0.00841 ± 0.0015 s⁻¹,0.0301 ± 0.0049 s⁻¹,0.00199 ± 0.00034 s⁻¹
A12C A14C G60A A64C,< 1e-05 s⁻¹,,,,
C11A A48G,< 1e-05 s⁻¹,< 1e-05 s⁻¹,< 1e-05 s⁻¹,,< 1e-05 s⁻¹
A12C A24U A52C C67A,< 1e-05 s⁻¹,,,,
C11A A12G U65A C67G,0.000126 ± 3e-05 s⁻¹,0.000193 ± 6.4e-05 s⁻¹,0.000105 ± 2.9e-05 s⁻¹,5.83e-05 ± 1.5e-05 s⁻¹,0.000766 ± 0.00026 s⁻¹
A12C C58U G63U,< 1e-05 s⁻¹,,,< 1e-05 s⁻¹,
C11G A14C,< 1e-05 s⁻¹,,,,< 1e-05 s⁻¹
C11A G59C,< 1e-05 s⁻¹,< 1e-05 s⁻¹,,,< 1e-05 s⁻¹
A12U G41U C61U,< 1e-05 s⁻¹,< 1e-05 s⁻¹,< 1e-05 s⁻¹,< 1e-05 s⁻¹,< 1e-05 s⁻¹
C11A G29U C50G,6.35e-05 ± 1.7e-05 s⁻¹,,5.28e-05 ± 2.3e-05 s⁻¹,,0.000296 ± 0.00011 s⁻¹
A12G C34G G41C C50U U55A,< 1e-05 s⁻¹,< 1e-05 s⁻¹,,,
A12C A42U A64G,< 1e-05 s⁻¹,< 1e-05 s⁻¹,,,
A12G G13A C61G,< 1e-05 s⁻¹,,,< 1e-05 s⁻¹,
